Details of data set [1]: species or system Sprague Dawley rats. As to conditions: rat, in vivo, sc, 1 mg/kg. On the procedure: Infliximab, sold as a lyophilized powder with the appropriate salts (Hannah Pharmaceuticals), was resuspended to a concentration of 10 mg/mL with water. The Vitamin D3-PEG-NHS carrier was resuspended at a concentration of 10 mg/mL in DMSO. The Vitamin D3-PEG-NHS carrier and the infliximab were then mixed at a molar ratio of 5:1 and 10:1 carrier to infliximab. […] By using an NHS version of the carrier, more than one carrier can be attached to a therapeutic protein and this can be experimentally controlled by altering the molar ratio of carrier to target therapeutic in the reaction. In this example, a target distribution of 2-4 carriers was set as a desired parameter.
The dose was 1 mg/kg in all test groups with three rats per group. Serum samples were collected pre-dosing and at various times from 5 min to 48 hrs post injection. Serum samples were then analyzed by ELISA using an ELISA kit specific for determining the levels of infliximab in serum (Promonitor™, Progenika™). Pharmacokinetic parameters were determined using WinNonLin.

For data set [2] the following is noted: FGF21 in its natural state; cited from earlier work.
The conditions of data set [3]: 1 mg/kg, cited from earlier work.

Where two headings read alike, the source gives them in different places.

Results on two molecules are retold here after patent US9289507B2, “Carriers for improved drug delivery” (Extend Biosciences, Inc., priority 2012, dated 2016).

On to “infliximab: Monoclonal antibody that binds tumor necrosis factor alpha (TNF-α) [reference compound]”, for which, in data set [1], the “serum concentration at 24 hr” value worked out at 2100 ng/mL and the “serum concentration at 48 hr” value is listed as 4800 ng/mL.

B1: FGF21: Fibroblast growth factor 21 in its natural state (SEQ ID:2), literature values (protein, listed as Homo sapiens)
chain: HPIPDSSPLLQFGGQVRQRYLYTDDAQQTEAHLEIREDGTVGGAADQSPESLLQLKALKPGVIQILGVKTSRFLCQRPDGALYGSLHFDPEACSFRELLLEDGYNVYQSEAHGLPLHLPGNKSPHRDPAPRGPARFLPLPGLPPALPEPPGILAPQPPDVGSSDPLSMVGPSQGRSPSYAS
The Cmax is the highest concentration seen after dosing. Consider B1, for which the half-life in serum in data set [2] was 1.1 h. For the same molecule, the Cmax was 1890 nM in data set [3] (intravenous route) and 73 nM in data set [3] (subcutaneous route).
